Reference: patent US20240301076A1

Target: human CXCR2 (human) (UniProt P25025)
Assay: cell-based or functional assay

human CXCR2 (human), sequence (P25025 whole entry): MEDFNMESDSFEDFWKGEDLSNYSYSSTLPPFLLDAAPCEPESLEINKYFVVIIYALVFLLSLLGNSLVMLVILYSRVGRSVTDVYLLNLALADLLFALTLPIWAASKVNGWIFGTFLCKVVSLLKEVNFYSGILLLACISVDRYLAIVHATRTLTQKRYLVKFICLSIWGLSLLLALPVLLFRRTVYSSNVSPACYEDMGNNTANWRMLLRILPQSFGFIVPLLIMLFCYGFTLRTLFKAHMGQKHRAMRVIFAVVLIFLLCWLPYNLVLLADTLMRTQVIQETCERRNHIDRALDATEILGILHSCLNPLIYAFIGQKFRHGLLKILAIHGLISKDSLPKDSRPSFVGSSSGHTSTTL
human CXCL1, sequence (P09341 35-107 limits assumed): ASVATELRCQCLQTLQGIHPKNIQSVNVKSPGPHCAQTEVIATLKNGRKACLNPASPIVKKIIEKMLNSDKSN
human CXCL8, sequence (P10145 28-99 limits assumed): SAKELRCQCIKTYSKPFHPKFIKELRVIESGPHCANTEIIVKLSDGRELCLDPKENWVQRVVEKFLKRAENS
human CXCL3, sequence (P19876 35-107 limits assumed): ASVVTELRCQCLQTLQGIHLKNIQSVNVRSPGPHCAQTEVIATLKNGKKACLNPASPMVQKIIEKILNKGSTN
human CXCL2, sequence (P19875 35-107 limits assumed): as the sequence (P09341 35-107 limits assumed) above, with S2P, V3L, P20L, N27K, R48Q, I58M, N68K, S69N, D70G counted along it
human CXCL6, sequence (P80162 38-114 limits assumed): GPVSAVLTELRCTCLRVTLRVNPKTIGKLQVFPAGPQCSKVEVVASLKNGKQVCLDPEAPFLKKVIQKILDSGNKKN
human CXCL5, sequence (P42830 37-114 limits assumed): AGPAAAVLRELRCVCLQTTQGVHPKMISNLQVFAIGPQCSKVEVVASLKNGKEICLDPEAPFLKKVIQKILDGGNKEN

## Antagonist 3 (anti-CXCR2 antibody clone 48311, R&D systems MAB331-500)
  CXCL1 IC50, calcium flux: 30.7 nM
  CXCL1 IC50, β-arrestin recruitment: 14.8 nM
  CXCL1 Maximal Inhibition %, calcium flux: 37%
  CXCL1 Maximal Inhibition %, β-arrestin recruitment: 85%
  CXCL5 IC50, β-arrestin recruitment: 8.12 nM
  CXCL5 Maximal Inhibition %, β-arrestin recruitment: 96%
  CXCL8 Maximal Inhibition %, calcium flux: 18%
  CXCL8 Maximal Inhibition %, β-arrestin recruitment: 82%

## Antagonist 4 (anti-CXCR2 antibody clone 6C6, BD Biosciences 555932)
  CXCL1 IC50, calcium flux: 1.29 nM
  CXCL1 IC50, β-arrestin recruitment: 1.47 nM
  CXCL1 Maximal Inhibition %, calcium flux: 93%
  CXCL1 Maximal Inhibition %, β-arrestin recruitment: 96%
  CXCL5 IC50, β-arrestin recruitment: 0.75 nM
  CXCL5 Maximal Inhibition %, β-arrestin recruitment: 99%
  CXCL8 IC50, β-arrestin recruitment: 1.01 nM
  CXCL8 Maximal Inhibition %, calcium flux: 1%
  CXCL8 Maximal Inhibition %, β-arrestin recruitment: 94%

## human CXCL1 (from UniProt P09341 35-107) (ligand)
  EC50 mean, Tango assay: 2.3 nM
  EC50 mean, calcium flux assay: 2.62 nM

## human CXCL2 (from UniProt P19875 35-107) (ligand)
  EC50 mean, Tango assay: 33.3 nM
  EC50 mean, calcium flux assay: 37 nM

## human CXCL3 (from UniProt P19876 35-107) (ligand)
  EC50 mean, Tango assay: 11.9 nM
  EC50 mean, calcium flux assay: 12.2 nM

## human CXCL5 (from UniProt P42830 37-114) (ligand)
  EC50 mean, Tango assay: 97.7 nM
  EC50 mean, calcium flux assay: 39.2 nM

## human CXCL6 (from UniProt P80162 38-114) (ligand)
  EC50 mean, Tango assay: 9.4 nM
  EC50 mean, calcium flux assay: 28.9 nM

## human CXCL8 (from UniProt P10145 28-99) (ligand)
  EC50 mean, Tango assay: 2.2 nM
  EC50 mean, calcium flux assay: 3.2 nM
